Literature values, collected in publication PMC3505813.
pKd: −log10 of the molar value.

What was measured:
[1] = molecular target: aminopeptidase N (APN) (Homo sapiens) (UniProt P15144)
VCAM-1 (Homo sapiens) = VCAM-1 (Homo sapiens) (UniProt P19320)
UniProt P19320, sequence (P19320 25-698): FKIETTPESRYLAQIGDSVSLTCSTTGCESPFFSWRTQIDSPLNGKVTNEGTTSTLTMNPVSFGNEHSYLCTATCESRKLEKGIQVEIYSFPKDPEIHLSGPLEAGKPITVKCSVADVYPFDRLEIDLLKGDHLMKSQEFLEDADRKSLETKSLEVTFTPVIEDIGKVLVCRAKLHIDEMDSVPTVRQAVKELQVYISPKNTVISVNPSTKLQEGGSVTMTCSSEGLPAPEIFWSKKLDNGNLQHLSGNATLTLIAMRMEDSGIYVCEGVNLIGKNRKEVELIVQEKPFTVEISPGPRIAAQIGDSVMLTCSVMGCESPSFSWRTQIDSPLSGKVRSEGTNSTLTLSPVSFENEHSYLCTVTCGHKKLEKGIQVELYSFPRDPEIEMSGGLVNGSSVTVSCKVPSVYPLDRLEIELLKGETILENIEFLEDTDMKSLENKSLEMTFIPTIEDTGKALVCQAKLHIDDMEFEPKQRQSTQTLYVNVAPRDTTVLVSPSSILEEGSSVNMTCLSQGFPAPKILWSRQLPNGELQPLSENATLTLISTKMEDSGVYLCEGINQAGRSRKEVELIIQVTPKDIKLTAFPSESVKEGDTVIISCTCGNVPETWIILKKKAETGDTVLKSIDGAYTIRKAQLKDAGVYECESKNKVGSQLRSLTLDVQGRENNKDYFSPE

UniProt P15144, sequence (P15144 2-967): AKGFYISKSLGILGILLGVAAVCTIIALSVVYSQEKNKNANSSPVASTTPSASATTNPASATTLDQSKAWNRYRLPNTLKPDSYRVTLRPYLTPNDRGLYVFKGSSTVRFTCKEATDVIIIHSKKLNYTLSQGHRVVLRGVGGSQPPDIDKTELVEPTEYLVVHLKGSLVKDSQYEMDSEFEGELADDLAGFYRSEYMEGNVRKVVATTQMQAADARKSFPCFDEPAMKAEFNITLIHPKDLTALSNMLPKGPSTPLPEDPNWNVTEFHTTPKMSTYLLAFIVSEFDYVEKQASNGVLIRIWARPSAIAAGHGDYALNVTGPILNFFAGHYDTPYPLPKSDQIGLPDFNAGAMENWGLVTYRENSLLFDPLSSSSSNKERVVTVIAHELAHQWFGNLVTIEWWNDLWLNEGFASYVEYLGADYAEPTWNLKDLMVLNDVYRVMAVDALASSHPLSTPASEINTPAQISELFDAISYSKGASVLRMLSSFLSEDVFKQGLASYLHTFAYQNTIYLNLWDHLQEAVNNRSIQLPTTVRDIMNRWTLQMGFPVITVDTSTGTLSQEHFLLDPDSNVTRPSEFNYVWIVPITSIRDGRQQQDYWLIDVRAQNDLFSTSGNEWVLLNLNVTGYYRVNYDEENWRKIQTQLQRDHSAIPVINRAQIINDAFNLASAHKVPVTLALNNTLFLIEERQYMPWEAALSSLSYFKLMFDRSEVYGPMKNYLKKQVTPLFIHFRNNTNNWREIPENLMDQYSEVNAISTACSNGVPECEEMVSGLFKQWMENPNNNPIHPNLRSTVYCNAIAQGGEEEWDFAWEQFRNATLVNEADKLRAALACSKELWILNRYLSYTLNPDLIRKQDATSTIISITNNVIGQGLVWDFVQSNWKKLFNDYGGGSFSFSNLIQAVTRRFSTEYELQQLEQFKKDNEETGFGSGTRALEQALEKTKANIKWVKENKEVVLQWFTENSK

Row | pKd [1] | pKd (VCAM-1 (Homo sapiens)) | Substance
1 | 3.52 |  | NGR peptide
2 |  | 4.52 | VHP peptide
